This note sets out measurements from the supplement of paper PMC10567573.

B1: EHMT1 (parent)
chain: EEINKNISDFGRQQLLPPFPSLHQ
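Further: lentivirally expressed fusions sorted by FACS into six bins by GFP to DsRed ratio, PSI derived from sequencing read proportions per bin multiplied by bin number.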

Variants of B1 are the subject of this data set. Briefly: protein stability index of a GFP-peptide fusion (GPS, HEK-293T) (PSI 1-6); higher = more stable. To be noted: c terminus: a fixed tail appended.
As to EEINKNISMFGRQQLLPPFPSLHQ [D9M], the protein stability index was 2.02.

For EEINKNISIFGRQQLLPPFPSLHQ [D9I], the protein stability index turned out to be 2.21. Then EEINKNISRFGRQQLLPPFPSLHQ [D9R], with 2.22; and EEINKNISQFGRQQLLPPFPSLHQ [D9Q], with 2.63. Then EEINKNISFFGRQQLLPPFPSLHQ [D9F], with 2.1; and EEINKNISNFGRQQLLPPFPSLHQ [D9N], with 2.43. In the case of EEINKNISEFGRQQLLPPFPSLHQ [D9E], the protein stability index stood at 2.5. Then EEINKNISWFGRQQLLPPFPSLHQ [D9W], with 2.15; and EEINKNISSFGRQQLLPPFPSLHQ [D9S], with 2.42. As for EEINKNISCFGRQQLLPPFPSLHQ [D9C], the protein stability index amounted to 2.09.

For the variant EEINKNISKFGRQQLLPPFPSLHQ [D9K], the protein stability index stood at 2.18. Consider EEINKNISAFGRQQLLPPFPSLHQ [D9A], for which the protein stability index worked out at 2.38. Then EEINKNISLFGRQQLLPPFPSLHQ [D9L], with 2.58. Then EEINKNISTFGRQQLLPPFPSLHQ [D9T], with 2.61; and EEINKNISVFGRQQLLPPFPSLHQ [D9V], with 2.31. Then EEINKNISPFGRQQLLPPFPSLHQ [D9P], with 2.45; and EEINKNISGFGRQQLLPPFPSLHQ [D9G], with 2.65. As for EEINKNISYFGRQQLLPPFPSLHQ [D9Y], the protein stability index amounted to 2.4. For EEINKNISDFPRQQLLPPFPSLHQ [G11P], the protein stability index turned out to be 2.87.

On to EEINKNISDFCRQQLLPPFPSLHQ [G11C], for which the protein stability index was determined as 1.94. For EEINKNISDFRRQQLLPPFPSLHQ [G11R], the protein stability index was 2.48. In the case of EEINKNISDFTRQQLLPPFPSLHQ [G11T], the protein stability index stood at 2.53. Then EEINKNISDFARQQLLPPFPSLHQ [G11A], with 2.88. Regarding EEINKNISDFDRQQLLPPFPSLHQ [G11D], the protein stability index was 2.97. Turning to EEINKNISDFKRQQLLPPFPSLHQ [G11K], the protein stability index stood at 2.59. EEINKNISDFQRQQLLPPFPSLHQ [G11Q]: the protein stability index came to 3.25. Then EEINKNISDFVRQQLLPPFPSLHQ [G11V], with 2.24. Then EEINKNISDFSRQQLLPPFPSLHQ [G11S], with 2.73. Then EEINKNISDFLRQQLLPPFPSLHQ [G11L], with 1.88; and EEINKNISDFERQQLLPPFPSLHQ [G11E], with 3.06.

Consider EEINKNISDFFRQQLLPPFPSLHQ [G11F], for which the protein stability index worked out at 2.02. Then EEINKNISDFWRQQLLPPFPSLHQ [G11W], with 1.55; and EEINKNISDFHRQQLLPPFPSLHQ [G11H], with 2.43; and EEINKNISDFNRQQLLPPFPSLHQ [G11N], with 3. Then EEINKNISDFYRQQLLPPFPSLHQ [G11Y], with 2.15; and EEINKNISDFMRQQLLPPFPSLHQ [G11M], with 2.85. Then EEINKNISDFIRQQLLPPFPSLHQ [G11I], with 1.71.

For the variant EEINYNISDFGRQQLLPPFPSLHQ [K5Y], the protein stability index stood at 2.13. Consider EEINTNISDFGRQQLLPPFPSLHQ [K5T], for which the protein stability index was determined as 3.16. Regarding EEINHNISDFGRQQLLPPFPSLHQ [K5H], the protein stability index is 2.86. With EEINGNISDFGRQQLLPPFPSLHQ [K5G], the protein stability index is 2.71. Then EEINNNISDFGRQQLLPPFPSLHQ [K5N], with 3.28.

For EEINCNISDFGRQQLLPPFPSLHQ [K5C], the protein stability index was found to be 2.54. Then EEINPNISDFGRQQLLPPFPSLHQ [K5P], with 3.06.

In the case of EEINMNISDFGRQQLLPPFPSLHQ [K5M], the protein stability index turned out to be 3.23. Then EEINFNISDFGRQQLLPPFPSLHQ [K5F], with 2.28; and EEINLNISDFGRQQLLPPFPSLHQ [K5L], with 2.72. In the case of EEINVNISDFGRQQLLPPFPSLHQ [K5V], the protein stability index is 2.68. On to EEINENISDFGRQQLLPPFPSLHQ [K5E], for which the protein stability index turned out to be 3.15.

On to EEINSNISDFGRQQLLPPFPSLHQ [K5S], for which the protein stability index was 2.84. As for EEINRNISDFGRQQLLPPFPSLHQ [K5R], the protein stability index was 2.57.

As to EEINDNISDFGRQQLLPPFPSLHQ [K5D], the protein stability index turned out to be 3.37. For the variant EEINANISDFGRQQLLPPFPSLHQ [K5A], the protein stability index was found to be 3.05. Then EEININISDFGRQQLLPPFPSLHQ [K5I], with 2.51; and EEINQNISDFGRQQLLPPFPSLHQ [K5Q], with 3.11; and EEINWNISDFGRQQLLPPFPSLHQ [K5W], with 2.6. As for EEINKNICDFGRQQLLPPFPSLHQ [S8C], the protein stability index stood at 2.62.

Turning to EEINKNIEDFGRQQLLPPFPSLHQ [S8E], the protein stability index worked out at 2.86.

As to EEINKNILDFGRQQLLPPFPSLHQ [S8L], the protein stability index was 2.12. With EEINKNIWDFGRQQLLPPFPSLHQ [S8W], the protein stability index turned out to be 2.02. Then EEINKNIYDFGRQQLLPPFPSLHQ [S8Y], with 2.53. Then EEINKNIKDFGRQQLLPPFPSLHQ [S8K], with 3.02; and EEINKNIHDFGRQQLLPPFPSLHQ [S8H], with 2.77; and EEINKNITDFGRQQLLPPFPSLHQ [S8T], with 2.77. Then EEINKNIVDFGRQQLLPPFPSLHQ [S8V], with 3.21. As for EEINKNIIDFGRQQLLPPFPSLHQ [S8I], the protein stability index amounted to 2.82. Then EEINKNIPDFGRQQLLPPFPSLHQ [S8P], with 3.12; and EEINKNIMDFGRQQLLPPFPSLHQ [S8M], with 2.72; and EEINKNIDDFGRQQLLPPFPSLHQ [S8D], with 3.07. In the case of EEINKNIRDFGRQQLLPPFPSLHQ [S8R], the protein stability index was found to be 2.71.

For EEINKNIQDFGRQQLLPPFPSLHQ [S8Q], the protein stability index was found to be 2.64. In the case of EEINKNIFDFGRQQLLPPFPSLHQ [S8F], the protein stability index came to 2.64.

For the variant EEINKNIADFGRQQLLPPFPSLHQ [S8A], the protein stability index was determined as 3.22.

As for EEINKNINDFGRQQLLPPFPSLHQ [S8N], the protein stability index was found to be 2.46. Turning to EEINKNIGDFGRQQLLPPFPSLHQ [S8G], the protein stability index was 2.55. Then EEINKNMSDFGRQQLLPPFPSLHQ [I7M], with 3.03; and EEINKNKSDFGRQQLLPPFPSLHQ [I7K], with 2.79; and EEINKNQSDFGRQQLLPPFPSLHQ [I7Q], with 3.58.

In the case of EEINKNGSDFGRQQLLPPFPSLHQ [I7G], the protein stability index was 3.3. Then EEINKNVSDFGRQQLLPPFPSLHQ [I7V], with 2.98; and EEINKNFSDFGRQQLLPPFPSLHQ [I7F], with 3.31.

On to EEINKNESDFGRQQLLPPFPSLHQ [I7E], for which the protein stability index was 3.38. For EEINKNTSDFGRQQLLPPFPSLHQ [I7T], the protein stability index was 2.63. Take EEINKNNSDFGRQQLLPPFPSLHQ [I7N]: the protein stability index was determined as 3.72. Then EEINKNDSDFGRQQLLPPFPSLHQ [I7D], with 3.21; and EEINKNCSDFGRQQLLPPFPSLHQ [I7C], with 2.88.

Consider EEINKNLSDFGRQQLLPPFPSLHQ [I7L], for which the protein stability index came out at 2.97. Then EEINKNYSDFGRQQLLPPFPSLHQ [I7Y], with 2.73; and EEINKNASDFGRQQLLPPFPSLHQ [I7A], with 2.96. Regarding EEINKNRSDFGRQQLLPPFPSLHQ [I7R], the protein stability index worked out at 2.42. Then EEINKNPSDFGRQQLLPPFPSLHQ [I7P], with 2.38; and EEINKNHSDFGRQQLLPPFPSLHQ [I7H], with 2.73; and EEINKNSSDFGRQQLLPPFPSLHQ [I7S], with 2.83. Then EEINKNWSDFGRQQLLPPFPSLHQ [I7W], with 2.52.
